Assay results from patent publication US20180162947A1 (UCB, published 2018).
Changes are numbered by the printed parent chain. Names may count otherwise.

B1: 969gH1gL1 (antibody, human IgG4 S228P, kappa, name in Kabat numbering, V domains shown)
VH: EVTLKESGPALVKPTQTLTLTCTFSGFSLTTYGMGVGWIRQPPGKALEWLANIWWDDDKYYNPSLKNRLTISKDTSKNQAVLTMTNMDPVDTATYYCARIGPIKYPTAPYRYFDFWGQGTMVTVSS
VL: DIQMTQSPSSLSASVGDRVTITCLASEDIYDNLAWYQKKPGKAPKLLIYYASSLQDGVPSRFSGSGSGTDYTLTISSLQPEDFATYFCLQDSEYPWTFGGGTKVEIKR
notes: Humanised IgG4 (S241P)/kappa; positions are Kabat; also called Ab969.g1
B2: 969gH2gL5 (antibody, human IgG4 S228P, kappa, name in Kabat numbering, V domains shown)
VH: B1 VH with A80V
VL: B1 VL with K38Q, Y71F
notes: Humanised IgG4 (S241P)/kappa; positions are Kabat
B3: 969gH2gL6 (antibody, human IgG4 S228P, kappa, name in Kabat numbering, V domains shown)
VH: B1 VH with A80V
VL: B1 VL with Y71F, F87Y
notes: Humanised IgG4 (S241P)/kappa; positions are Kabat; also called Ab969.g9
B4: 969gH1gL2 (antibody, human IgG4 S228P, kappa, name in Kabat numbering, V domains shown)
VH: B1 VH
VL: B1 VL with K38Q
notes: as for B2
B5: 969gH1gL6 (antibody, human IgG4 S228P, kappa, name in Kabat numbering, V domains shown)
VH: B1 VH
VL: B1 VL with Y71F, F87Y
notes: as for B2
B6: 969gH1gL7 (antibody, human IgG4 S228P, kappa, name in Kabat numbering, V domains shown)
VH: B1 VH
VL: B1 VL with K38Q, F87Y
notes: Humanised IgG4 (S241P)/kappa; position is Kabat
B7: 969gH2gL4 (antibody, human IgG4 S228P, kappa, name in Kabat numbering, V domains shown)
VH: B1 VH with A80V
VL: B1 VL with F87Y
notes: Humanised IgG4 (S241P)/kappa; positions are Kabat; also called Ab969.g7
B8: 969gH1gL8 (antibody, human IgG4 S228P, kappa, name in Kabat numbering, V domains shown)
VH: B1 VH
VL: B1 VL with K38Q, Y71F, F87Y
notes: as for B2
B9: 969gH2gL8 (antibody, human IgG4 S228P, kappa, name in Kabat numbering, V domains shown)
VH: B1 VH with A80V
VL: B1 VL with K38Q, Y71F, F87Y
notes: Humanised IgG4 (S241P)/kappa, no donor residues; position is Kabat; also called Ab969.g4
B10: 969gH1gL3 (antibody, human IgG4 S228P, kappa, name in Kabat numbering, V domains shown)
VH: B1 VH
VL: B1 VL with Y71F
notes: as for B2
B11: 969gH1gL5 (antibody, human IgG4 S228P, kappa, name in Kabat numbering, V domains shown)
VH: B1 VH
VL: B1 VL with K38Q, Y71F
notes: as for B2
B12: 969gH2gL1 (antibody, human IgG4 S228P, kappa, name in Kabat numbering, V domains shown)
VH: B1 VH with A80V
VL: B1 VL
notes: Humanised IgG4 (S241P)/kappa; positions are Kabat; also called Ab969.g6
B13: 969gH2gL2 (antibody, human IgG4 S228P, kappa, name in Kabat numbering, V domains shown)
VH: B1 VH with A80V
VL: B1 VL with K38Q
notes: as for B2
B14: 969gH1gL4 (antibody, human IgG4 S228P, kappa, name in Kabat numbering, V domains shown)
VH: B1 VH
VL: B1 VL with F87Y
notes: as for B2
B15: 969gH2gL3 (antibody, human IgG4 S228P, kappa, name in Kabat numbering, V domains shown)
VH: B1 VH with A80V
VL: B1 VL with Y71F
notes: as for B2
B16: 969gH2gL7 SG (antibody, human IgG4 S228P, kappa, V domains shown)
VH: B1 VH with A80V
VL: B1 VL with K38Q, D56S, F87Y
notes: Humanised IgG4 (S241P)/kappa; also called 969H2gL7(SG)

Molecular target: T1, recombinant human CSF-1R (form not stated) (human, UniProt P07333 20-512, limits assumed)
T1 construct: for the ELISA no species is stated; also called recombinant CSF-1R; recombinant CSF-1R protein
Assay: BIAcore, humanisation stage, crude cell supernatant

T1 sequence (P07333 20-512 limits assumed): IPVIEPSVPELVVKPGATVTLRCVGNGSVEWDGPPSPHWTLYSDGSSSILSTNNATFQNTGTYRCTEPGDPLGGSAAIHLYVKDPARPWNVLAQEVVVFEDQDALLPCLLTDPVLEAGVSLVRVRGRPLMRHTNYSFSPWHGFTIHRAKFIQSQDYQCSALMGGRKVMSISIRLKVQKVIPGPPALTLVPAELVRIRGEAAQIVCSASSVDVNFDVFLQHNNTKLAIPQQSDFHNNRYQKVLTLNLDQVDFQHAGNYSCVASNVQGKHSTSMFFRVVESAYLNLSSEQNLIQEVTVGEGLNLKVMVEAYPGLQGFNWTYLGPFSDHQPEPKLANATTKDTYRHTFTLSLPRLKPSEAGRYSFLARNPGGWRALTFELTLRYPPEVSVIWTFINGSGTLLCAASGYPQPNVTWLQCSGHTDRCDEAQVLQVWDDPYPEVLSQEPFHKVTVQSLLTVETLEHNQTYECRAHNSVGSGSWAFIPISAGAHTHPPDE

Row | Kd [pM] | koff [s⁻¹] | kon [M⁻¹ s⁻¹] | Binder
1 | ≤ 2.4 | ≤ 5e-06 | 2.04e+06 | B1
2 | 6.5 | 5e-06 | 768000 | B2
3 | 4.4 | 6.23e-06 | 1.4e+06 | B3
4 | 3.4 | 5e-06 | 1.46e+06 | B4
5 | 4.4 | 5e-06 | 1.15e+06 | B5
6 | 3.3 | 5e-06 | 1.5e+06 | B6
7 | 4.4 | 9.64e-06 | 2.2e+06 | B7
8 | 4.3 | 5e-06 | 1.17e+06 | B8
9 | 4.1 | 5e-06 | 1.23e+06 | B9
10 | 2.8 | 5e-06 | 1.8e+06 | B10
11 | 6.6 | 6.11e-06 | 926000 | B11
12 | 2.3 | 5.23e-06 | 2.27e+06 | B12
13 | 3.4 | 6.11e-06 | 1.78e+06 | B13
14 | 2.1 | 5e-06 | 2.39e+06 | B14
15 | 3.4 | 7.29e-06 | 2.12e+06 | B15

Molecular target: T1, recombinant human CSF-1R (form not …)
Assay: BIAcore, DG/SG comparison, crude cell supernatant

Row | Kd [pM] | koff [s⁻¹] | kon [M⁻¹ s⁻¹] | Binder
16 | 2 | 5e-06 | 2.54e+06 | B16
17 | 2.3 | 5e-06 | 2.18e+06 | B9

Molecular target: T1, recombinant human CSF-1R (form not …)
Assay: BIAcore, mean of 3 (fourth row, unlabelled)
Protocol: (§1) The assay format was capture of the anti-CSF-1R antibodies by immobilised anti-human IgG,F(ab′)₂, then a titration of hCSF-1R/Fc over the captured surface. BIA (Biomolecular Interaction Analysis) was performed using a BIAcore 3000 (GE Healthcare Bio-Sciences AB). All experiments were performed at 25° C. An AffiniPure F(ab′)₂ fragment goat anti-human IgG, F(ab′)₂ fragment specific (Jackson ImmunoResearch), was immobilised on a CM5 Sensor Chip (GE Healthcare Bio-Sciences AB) via amine coupling chemistry to a level of ˜5000 response units (RU). HBS-EP buffer (10 mM HEPES, pH 7.4, 0.15M NaCl, 3 mM EDTA, 0.005% Surfactant P20, GE Healthcare Bio-Sciences AB) was used as the running buffer with a flow rate of 10 μl/min.

Row | Kd [pM] | koff [s⁻¹] | kon [M⁻¹ s⁻¹] | Binder
18 | 3.2 | 8.13e-06 | 2.58e+06 | B1
19 | 3.7 | 9.55e-06 | 2.56e+06 | B7
20 | 2.8 | 5.55e-06 | 1.97e+06 | B9
21 | 3.3 | 8.14e-06 | 2.47e+06 | B12

Molecular target: T1, recombinant human CSF-1R (form not …)
Assay: BIAcore, experiment 3 of 3
Protocol: as §1

Row | Kd [pM] | koff [s⁻¹] | kon [M⁻¹ s⁻¹] | Binder
22 | 3.9 | 9.88e-06 | 2.51e+06 | B1
23 | 4.6 | 1.15e-05 | 2.52e+06 | B7
24 | 2.5 | 5e-06 | 1.97e+06 | B9
25 | 2.6 | 6.63e-06 | 2.54e+06 | B12

Molecular target: human CSF-1R on cells (THP-1 cells, transfected HEK293F cells, primary human monocytes) (human, UniProt P07333 20-972)
Assay: cell-based or functional assay

Chain of human CSF-1R on cells (THP-1 cells, transfected HEK293F cells, primary human monocytes) (P07333 20-972): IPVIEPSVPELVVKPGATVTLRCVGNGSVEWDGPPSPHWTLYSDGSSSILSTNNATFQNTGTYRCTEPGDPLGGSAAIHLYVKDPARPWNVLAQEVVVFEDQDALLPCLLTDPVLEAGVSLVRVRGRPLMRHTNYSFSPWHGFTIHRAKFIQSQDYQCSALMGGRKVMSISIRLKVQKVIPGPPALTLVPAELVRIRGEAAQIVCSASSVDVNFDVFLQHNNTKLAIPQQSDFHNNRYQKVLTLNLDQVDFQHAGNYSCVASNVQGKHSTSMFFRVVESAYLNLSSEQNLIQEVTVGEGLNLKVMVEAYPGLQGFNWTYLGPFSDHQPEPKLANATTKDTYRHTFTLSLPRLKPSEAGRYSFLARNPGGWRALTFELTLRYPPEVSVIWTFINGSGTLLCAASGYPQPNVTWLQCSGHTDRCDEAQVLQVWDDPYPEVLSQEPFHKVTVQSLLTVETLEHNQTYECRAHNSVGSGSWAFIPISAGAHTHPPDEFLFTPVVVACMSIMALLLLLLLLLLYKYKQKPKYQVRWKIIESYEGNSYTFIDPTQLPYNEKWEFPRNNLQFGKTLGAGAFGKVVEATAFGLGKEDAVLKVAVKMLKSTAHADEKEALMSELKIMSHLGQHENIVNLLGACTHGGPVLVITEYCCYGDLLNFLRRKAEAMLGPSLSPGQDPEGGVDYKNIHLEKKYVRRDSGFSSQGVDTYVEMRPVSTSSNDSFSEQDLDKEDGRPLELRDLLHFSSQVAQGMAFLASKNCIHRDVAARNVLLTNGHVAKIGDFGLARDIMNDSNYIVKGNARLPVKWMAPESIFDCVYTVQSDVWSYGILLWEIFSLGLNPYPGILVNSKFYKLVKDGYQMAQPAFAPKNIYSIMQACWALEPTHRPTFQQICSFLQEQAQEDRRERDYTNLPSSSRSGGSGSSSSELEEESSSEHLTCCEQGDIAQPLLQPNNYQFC

Row | IC50, MCP-1 inhibition assay, Donor 1 [µg/mL] | IC50, MCP-1 inhibition assay, Donor 2 [µg/mL] | IC50 ratio against chimeric 969.g0 (number in parentheses), Donor 1 [ratio] | IC50 ratio against chimeric 969.g0 (number in parentheses), Donor 2 [ratio] | Mean chimeric/graft IC50 ratio [ratio] | Binder
26 | 0.0463 | 0.0061 | 1.5 | 1.1 | 1.3 | B7

Molecular target: T1, recombinant human CSF-1R (form not …)
Assay: BIAcore, experiment 1 of 3
Protocol: as §1

Row | Kd [pM] | koff [s⁻¹] | kon [M⁻¹ s⁻¹] | Binder
27 | 3.2 | 8.47e-06 | 2.65e+06 | B1
28 | 3 | 7.73e-06 | 2.57e+06 | B7
29 | 2.5 | 5e-06 | 1.99e+06 | B9
30 | 3.6 | 8.84e-06 | 2.43e+06 | B12

Molecular target: T1, recombinant human CSF-1R (form not …)
Assay: BIAcore, experiment 2 of 3
Protocol: as §1

Row | Kd [pM] | koff [s⁻¹] | kon [M⁻¹ s⁻¹] | Binder
31 | 2.4 | 6.04e-06 | 2.57e+06 | B1
32 | 3.6 | 9.41e-06 | 2.6e+06 | B7
33 | 3.4 | 6.65e-06 | 1.94e+06 | B9
34 | 3.7 | 8.95e-06 | 2.44e+06 | B12
